Series [1] relates to RBL-2H3 cells. Description: Intracellular Ca2+ concentration (Fluo-3-AM). Format: cell-based. The method, then:
RBL-2H3 cells were cultivated according to the same procedure as in Example 6 and then, washed with Krebs-Ringer buffer (KRH, 125 mM NaCl, 1.2 mM KH2PO4, 1.2 mM MgSO4, 6 mM glucose, 2 mM CaCl2, 25 mM Hepes, pH 7.4). Subsequently, they were incubated with 2 μM Fluo-3-AM (Molecular Probes, Eugene, Oreg.) and KRH buffer containing 0.2% BSA for 30 minutes and then, the culture was corrected with DMEM complete medium for 10˜30 minutes. Subsequently, the cells were washed with KRH buffer and sensitized according to the same procedure as in Example 6. After the sensitization, the cells were treated with HRF, anti-IgE (Serotec) and each inhibitor together with histamine releasing buffer (100 mM NaCl, 0.4 mM MgCl2, 5 mM KCl, 5.6 mM glucose, 0.1% BSA, 25 mM Hepes, pH 7.4) in the presence or absence of Ca^2+. The fluorescence of fluo-3AM was measured at 488/515 nm using laser scanning confocal microscope.

For series [2], the system named is (Na,K)ATPase large cytoplasmic loop (CD3). Briefly: Yeast 2-hybrid analysis of HRF binding to (Na,K)ATPase large cytoplasmic loop. Set-up: species or system rat. Conditions: CD3 of (Na,K)ATPase α1 and α2 subunits as bait. The text has this:
The total cytoplasmic RNA was extracted from rat skeletal muscle and then, cDNA library for yeast 2-hybrid analysis was constructed by using pJG4-5 vector. CD3 region of (Na,K)ATPase α2 subunit was inserted to LexA DNA binding domain (pEG202 vector) and the inserts were used as bait for screening. Positive clones activating reporter gene were selected and sequence analyzed by sequencing, restriction mapping and BLAST search. Among those clones, one clone had the completely identical sequence with HRF.
CD3 regions of (Na,K)ATPase α1 and 2 subunits were inserted to pEG202 vector and then, the interaction by isoforms was examined. Yeast cells containing LexAop-LEU2 and LexAop-LacZ reporter genes (EGY48/pSH18-34) were transformed with all the constructs as prepared above and then, grown in a selective medium plate.

Another series has as its system (Na,K)ATPase. Description: Inhibitory activity on (Na,K)ATPase (86Rb+ tracer, K+-uptake). Conditions: 10˜20 μg/ml HRF. Type of series: cell-based. The method, then: RBL-2H3 cells were cultivated and sensitized according to the same procedures as in Example 6 and then, washed three times with Krebs-Ringer buffer (KRP, 140 mM NaCl, 5 mM KCl, 10 mM Na2HPO4, 1 mM MgSO4, 1.4 mM CaCl2, 2.5 mM glucose, pH 7.4). Subsequently, the cells were incubated at 37° C. for 15 minutes and then, thereto was added 0.1% bovine serum albumin (BSA)-containing KRP buffer comprising 1 mM ouabain. ^86Rb^+([…], NEN) was used as a tracer and the cells were cultivated for 5˜10 minutes. 10˜20 µg/ml HRF was added thereto and K^+-uptake was measured for 5, 10 and 15 minutes, respectively.

The test system of series [3] is RBL-2H3 cells. Briefly: Intracellular Na+ concentration (sodium green fluorescence). Type of series: cell-based. Conditions: IgE-sensitized RBL-2H3 cells, HRF 10˜20 μg/ml. Here is the method: RBL-2H3 cells were loaded onto 24-well plate at 3.0×10^5˜1×10^6 cells/ml and cultivated at 37° for 18 hours. Hams F-12 culture (phenol red or serum-free 2 mM sodium bicarbonate and 10 mM HEPES, pH 7.3) was mixed with sodium green tetracetate dye (Molecular Probes, Eugene, Oreg.) at a final concentration of […] and the mixture was loaded onto the cells (Amorino and Fox, 1995). The cells were sensitized with 0.2 μg/ml of rat IgE (Serotec) for 45˜60 minutes and then, cultivated at room temperature for about 20˜60 minutes and washed three times with F-12 medium. Subsequently, thereto was added HRF (10˜20 μg/ml) in histamine releasing buffer and then, fluorescence was measured with microtiter reader (FL600, Bio-tek Instruments, Inc., Winooski, Vt.) at 485/530 nm for 15 minutes. The mixed solution of Na^+ and K^+ at an appropriate concentration was measured using gramicidin D (Sigma) as calibration (Amorino and Fox, 1995).

Series [4] concerns (Na,K)ATPase large cytoplasmic loop. Briefly: Coimmunoprecipitation in yeast cells. Type of series: binding, rat. The method, then: In Glucosyl Ura-His-Trp- and galactosyl Ura-His-Trp-media, yeast cells transformed with the constructs prepared in Example 1 were grown, and the cells were harvested by centrifugation at 3,000×g for 5 minutes. The harvested cells were resuspended in yeast lysis buffer (YLB: 50 mM Tris pH 8.0, 5 mM MgCl2, 150 mM NaCl, 50 mM NaF, 2 mM ZnCl2, protease inhibitor cocktail) and subsequently, the suspension was added to glass beads and vortexed. Thereto was added RIPA buffer (10 mM Tris pH 8.0, 100 mM NaCl, 1 mM EDTA, 1% NP4O, 0.5% sodium deoxycholate, 0.1% SDS) and then, the whole mixture was centrifuged at 10,000×g, 4° C. for 30 minutes.
To the cell extracts as prepared above, IgG sorb (The Enzyme Center, Inc.) was added and then, the mixture was incubated at 4° C. for 30 minutes and centrifuged at 10,000×g for 5 minutes. Thereto was added affinity-purified anti-HA 12CA5 monoclonal antibodies and then, the resulting mixture was incubated for 3 hours or overnight at 4° C. 50% protein A agarose solution (Roche, USA) was added to the above immunocomplex and the whole mixture was incubated at 4° C. for 4 hours. After centrifugation for 5 seconds, the obtained pellets were washed with RIPA buffer and washing buffer (1 M NaCl, 10 mM Tris pH 8.0, 0.1% NP4O), respectively. The pellets were resuspended in 2×SDS sample buffer and then, the suspension was loaded onto SDS-PAGE gel. […]

The next series has as its system COS-7 cells. Briefly: HRF's capability of transiting cell membrane (confocal microscopy, Western blotting). Type of series: cell-based. The following applies: recombinant rat HRF added to COS-7 cell culture solution. Here is the method:
The full-length rat HRF sequence (Chitpatima, et al., 1988) amplified by PCR (polymerase chain reaction) was cloned in pRSET-A vector and then, overexpressed in E. coli. The expressed recombinant protein was purified by His-bound Ni column (Novagen) and then, added to COS-7 cell culture solution. COS-7 cells were immobilized with 3.7% formaldehyde containing Ca^2+ and Mg^2+ for 10 minutes. Then, the cells were stained with anti-His monoclonal antibodies (1:100) containing 0.1% saponin at room temperature for 1 hour. Subsequently, they were incubated with anti-mouse-FITC (1:100) secondary antibodies for 30 minutes. Anti-bleaching agent solution was added thereto and then, observation was made under laser confocal microscope (Leica TCSNT system).
Further, COS-7 cells cultivated in 100 mm culture plate were treated according to the above method. Then, the cells were divided into cytoplasmic fraction and cell membrane fraction. They were loaded onto 10% SDS-PAGE gel and then, Western blotting was carried out using anti-His monoclonal antibodies.
As shown in the figures, HRF was detected within the cells at 1 minute after its addition.
For orientation: Immunoblotting shows a protein as a band on a membrane.

The record followed here is patent publication US6710165B2, “IgE-dependent histamine-releasing factor-binding peptides” (priority 2000, dated 2004).

B1: HRF: recombinant full-length rat HRF overexpressed in E. coli; protein consisting of 172 amino acids (protein)
chain: MIIYRDLISHDELFSDIYKIREIADGLCLEVEGKMVSRTEGAIDDSLIGGNASAEGPEGEGTESTVVTGVDIVMNHHLQETSFTKEAYKKYIKDYMKSLKGKLEEQKPERVKPFMTGAAEQIKHILANFNNYQFFIGENMNPDGMVALLDYREDGVTPFMIFFKDGLEMEKC
modifications: left off: small tags and cut ends
notes: recombinant full-length rat HRF overexpressed in E. coli; protein consisting of 172 amino acids
Regarding B1, in the series with RBL-2H3 cells [1], the “effect on intracellular Ca2+ concentration” value is on record as “intracellular Ca^2+ concentration was increased”. In addition, the “HRF binding to (Na,K)ATPase CD3 in yeast 2-hybrid” value in series [2] is given as “HRF receptor corresponds to large cytoplasmic loop (CD3) of (Na,K)ATPase”. Also, the “decrease of (Na,K)ATPase activity” value in the series with (Na,K)ATPase (K+-uptake measured for 5 minutes) turned out to be 10.8%; with (Na,K)ATPase (K+-uptake measured for 10 minutes), 40.4%; in the series on (Na,K)ATPase (K+-uptake measured for 15 minutes), 50.7%. Also, in the series on RBL-2H3 cells [3], the “effect on intracellular Na+ concentration” value is “increased the intracellular Na^+ concentration”. Further, the “interaction with (Na,K)ATPase large cytoplasmic loop, coimmunoprecipitation” value in series [4] was “interaction between HRF and (Na,K)ATPase large cytoplasmic loop could be confirmed”. Further, the “time after addition at which HRF was detected within the cells” value in the series with COS-7 cells was 1 min.
